Measurements reported in the supplement of paper PMC7125110.
± gives the standard error. Variants at the floor of the assay were thinned out.

B1: glmS ribozyme (parent)
chain: AUAAAAGCGCCAGAACUACAGAAAUGUAGUUGACGAGGAGGAGGUUUAUCGAAUUUUCGGCGGAUGCCUCCAAA

Columns and labels:
Conditions in all cases: with glucosamine-6-phosphate
[1] = variants of: B1; assay: self-cleavage kobs at 40 uM GlcN6P; higher = faster cleavage; RNA array
Outline: (§1)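 Barcoded ribozyme variants, transcribed in situ by E. coli RNA polymerase on sequenced MiSeq chips, were followed via a hybridised Cy3 probe at 37 °C. Glucosamine-6-phosphate ranged from 40 μM to 10 mM in HEPES/KCl/Mg(OAc)2 buffer. kobs came from decay fits to per-tile medians, and kcat and KM from weighted Michaelis–Menten fits.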

[2] = variants of: B1; assay: self-cleavage kobs at 160 uM GlcN6P; higher = faster cleavage; RNA array
Outline: as §1

[3] = variants of: B1; assay: self-cleavage kobs at 640 uM GlcN6P; higher = faster cleavage; RNA array
Outline: as §1

[4] = variants of: B1; assay: self-cleavage kobs at 2500 uM GlcN6P; higher = faster cleavage; RNA array
Outline: as §1

[5] = variants of: B1; assay: self-cleavage kobs at 10000 uM GlcN6P; higher = faster cleavage; RNA array
Outline: as §1

Variant | self-cleavage kobs at 40 uM GlcN6P [1] [s⁻¹] | self-cleavage kobs at 160 uM GlcN6P [2] [s⁻¹] | self-cleavage kobs at 640 uM GlcN6P [3] [s⁻¹] | self-cleavage kobs at 2500 uM GlcN6P [4] [s⁻¹] | self-cleavage kobs at 10000 uM GlcN6P [5] [s⁻¹]
C58G G60C | < 1e-05 | < 1e-05 | < 1e-05 | < 1e-05 | < 1e-05
A48C G51U | < 1e-05 |  | < 1e-05 |  | < 1e-05
G60C C61A | < 1e-05 | < 1e-05 | < 1e-05 |  | < 1e-05
U55C C61U C68U | < 1e-05 |  |  |  | < 1e-05
G51C G63A | < 1e-05 | < 1e-05 |  | < 1e-05 | 
A52U A53G C61U | < 1e-05 |  |  |  | 
G63U G66U | < 1e-05 |  | < 1e-05 | < 1e-05 | < 1e-05
G63U G66C | < 1e-05 | < 1e-05 |  | < 1e-05 | < 1e-05
U56G C67A | 6.65e-05 ± 1.8e-05 | 0.000207 ± 5.3e-05 | 0.00102 ± 0.00014 | 0.000842 ± 0.00014 | 0.00273 ± 0.00081
A48C U69G C70U | < 1e-05 |  |  | < 1e-05 | < 1e-05
U54A C67G | 8.43e-05 ± 1.3e-05 | 0.000213 ± 4.1e-05 | 0.000297 ± 5.3e-05 | 0.000126 ± 2.2e-05 | 0.00147 ± 0.00055
U54A C67U | 0.000285 ± 9.7e-05 | 0.000312 ± 9.1e-05 | 0.00116 ± 0.00032 | 0.00976 ± 0.0027 | 0.00584 ± 0.0013
A48U U56A C58A | < 1e-05 |  |  |  | 
C50G G59C C67G | 0.00018 ± 5.4e-05 |  |  |  | 0.000119 ± 2.8e-05
A52U G62A | < 1e-05 |  | < 1e-05 | < 1e-05 | < 1e-05
A53G C61G | < 1e-05 |  |  |  | 
C58A G62C | < 1e-05 | < 1e-05 | < 1e-05 | < 1e-05 | 
A53U G66A C67U | 7.59e-05 ± 1.6e-05 |  |  |  | 0.00355 ± 0.00067
A52C G60U U69C | < 1e-05 |  |  |  | 
A53G U54C | 0.000508 ± 7.8e-05 | 0.000991 ± 0.00024 |  |  | 0.0169 ± 0.0033
U57A G59U | < 1e-05 | < 1e-05 | < 1e-05 |  | < 1e-05
A64U C68A | < 1e-05 |  | < 1e-05 |  | < 1e-05

Variant | self-cleavage kobs at 40 uM GlcN6P [1] [s⁻¹] | self-cleavage kobs at 160 uM GlcN6P [2] [s⁻¹] | self-cleavage kobs at 640 uM GlcN6P [3] [s⁻¹] | self-cleavage kobs at 2500 uM GlcN6P [4] [s⁻¹] | self-cleavage kobs at 10000 uM GlcN6P [5] [s⁻¹]
U56G G62U C68G | < 1e-05 |  |  |  | < 1e-05
A64G U65A C68G | < 1e-05 |  |  |  | 
U55G U56G G62C | < 1e-05 |  |  |  | < 1e-05
G63U A64C C67G C70U | < 1e-05 |  | < 1e-05 |  | < 1e-05
A48U G51U U65G C71U | < 1e-05 |  |  | < 1e-05 | 
U56C G60U | < 1e-05 | < 1e-05 | < 1e-05 | < 1e-05 | < 1e-05
G60A C67U | < 1e-05 | < 1e-05 |  |  | 
A48U A53C | < 1e-05 | < 1e-05 |  |  | 
C58G A64G C68A | 4.76e-05 ± 1.8e-05 |  | 0.00061 ± 0.00029 | 5.81e-05 ± 2.1e-05 | 
G60U C67G | < 1e-05 | < 1e-05 | < 1e-05 | < 1e-05 | < 1e-05
G51U G63U A64C | < 1e-05 |  |  | < 1e-05 | 
G51A A64C | < 1e-05 | < 1e-05 |  | < 1e-05 | < 1e-05
U55A C70U | 0.00118 ± 0.00012 | 0.00271 ± 0.00065 | 0.00644 ± 0.0011 |  | 
U55G C67G | 0.000127 ± 1.4e-05 | 0.000234 ± 5.1e-05 | 0.000819 ± 0.00012 | 0.000472 ± 0.0001 | 0.00597 ± 0.00099
G62C A64G | < 1e-05 |  | < 1e-05 |  | < 1e-05
A48U C58U | < 1e-05 | < 1e-05 | < 1e-05 | < 1e-05 | < 1e-05
C50G G59A | 4.42e-05 ± 2.2e-05 | 8.57e-05 ± 2.1e-05 |  |  | 
U54G G62U | < 1e-05 | < 1e-05 | < 1e-05 | < 1e-05 | < 1e-05
G62A C67A | < 1e-05 |  |  |  | < 1e-05
A64G C68G C71A | < 1e-05 | < 1e-05 | < 1e-05 |  | < 1e-05
A53U G62C | < 1e-05 |  | < 1e-05 | < 1e-05 | < 1e-05
